The values that follow come from patent US20200277360A1 (UNIVERSITY OF MANCHESTER, published 2020).

The term Kd denotes the constant that tells how readily two partners part at equilibrium. Read a low Kd as a tighter complex.

The target in series [1] is T1, C3b (human, UniProt P01024 23-667; P01024 749-1663).
T1 construct: also called purified C3b
The series is described as follows: Bio-Layer Interferometry. (In general: In BLI a coated tip is dipped into the sample, and binding shifts an interference pattern.)

Series [2] deals with C3b.

T1 sequence (P01024 23-667 limits assumed, chain 1 of 2): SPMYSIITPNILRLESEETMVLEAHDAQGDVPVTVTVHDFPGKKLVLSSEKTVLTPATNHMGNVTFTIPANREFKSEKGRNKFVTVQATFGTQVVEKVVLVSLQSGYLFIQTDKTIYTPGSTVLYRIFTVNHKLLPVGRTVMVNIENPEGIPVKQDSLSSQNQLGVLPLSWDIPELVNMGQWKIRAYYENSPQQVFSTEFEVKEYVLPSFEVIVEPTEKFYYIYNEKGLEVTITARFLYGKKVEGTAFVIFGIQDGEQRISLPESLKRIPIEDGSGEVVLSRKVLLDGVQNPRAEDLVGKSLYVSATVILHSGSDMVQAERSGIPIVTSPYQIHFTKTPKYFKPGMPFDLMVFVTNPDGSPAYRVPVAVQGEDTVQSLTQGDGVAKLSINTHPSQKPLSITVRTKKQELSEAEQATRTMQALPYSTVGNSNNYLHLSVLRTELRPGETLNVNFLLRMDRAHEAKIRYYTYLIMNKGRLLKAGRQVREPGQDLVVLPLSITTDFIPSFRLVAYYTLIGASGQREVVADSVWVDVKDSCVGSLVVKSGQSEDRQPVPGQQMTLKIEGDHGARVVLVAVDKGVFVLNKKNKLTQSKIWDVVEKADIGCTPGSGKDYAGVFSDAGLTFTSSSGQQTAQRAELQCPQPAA
T1 sequence (P01024 749-1663 limits assumed, chain 2 of 2): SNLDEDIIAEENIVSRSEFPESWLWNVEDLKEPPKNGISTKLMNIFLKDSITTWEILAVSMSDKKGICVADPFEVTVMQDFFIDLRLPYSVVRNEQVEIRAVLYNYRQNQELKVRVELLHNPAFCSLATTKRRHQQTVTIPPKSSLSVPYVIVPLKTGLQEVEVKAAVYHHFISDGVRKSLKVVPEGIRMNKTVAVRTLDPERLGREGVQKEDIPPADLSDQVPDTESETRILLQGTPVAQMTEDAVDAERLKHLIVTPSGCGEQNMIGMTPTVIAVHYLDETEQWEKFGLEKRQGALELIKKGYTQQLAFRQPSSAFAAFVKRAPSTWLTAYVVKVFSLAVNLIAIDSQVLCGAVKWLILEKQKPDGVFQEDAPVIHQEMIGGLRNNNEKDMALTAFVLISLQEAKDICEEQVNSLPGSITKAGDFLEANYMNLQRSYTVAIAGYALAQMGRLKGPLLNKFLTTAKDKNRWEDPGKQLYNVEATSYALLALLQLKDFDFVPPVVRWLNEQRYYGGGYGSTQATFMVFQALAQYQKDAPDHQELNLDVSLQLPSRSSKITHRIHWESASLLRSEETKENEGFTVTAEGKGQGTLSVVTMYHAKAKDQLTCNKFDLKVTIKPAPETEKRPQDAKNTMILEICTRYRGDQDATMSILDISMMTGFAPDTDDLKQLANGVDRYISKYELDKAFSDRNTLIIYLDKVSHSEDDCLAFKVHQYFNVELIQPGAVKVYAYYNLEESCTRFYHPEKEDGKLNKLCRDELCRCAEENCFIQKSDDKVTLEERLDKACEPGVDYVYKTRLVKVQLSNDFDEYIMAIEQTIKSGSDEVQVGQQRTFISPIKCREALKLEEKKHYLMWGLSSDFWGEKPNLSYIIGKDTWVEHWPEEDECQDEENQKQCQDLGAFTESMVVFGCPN

B1: Complement Factor H isoform FHL-1 (other)
chain: EDCNELPPRRNTEILTGSWSDQTYPEGTQAIYKCRPGYRSLGNVIMVCRKGEWVALNPLRKCQKRPCGHPGDTPFGTFTLTGGNVFEYGVKAVYTCNEGYQLLGEINYRECDTDGWTNDIPICEVVKCLPVTAPENGKIVSSAMEPDREYHFGQAVRFVCNSGYKIEGDEEMHCSDDGFWSKEKPKCVEISCKSPDVINGSPISQKIIYKENERFQYKCNMGYEYSERGDAVCTESGWRPLPSCEEKSCDNPYIPNGDYSPLRIKHRTGDEITYQCRNGFYPATRGNTAKCTSTGWIPAPRCTLKPCDYPDIKHGGLYHENMRRPYFPVAVGKYYSYYCDEHFETPSGSYWDHIHCTQDGWSPAVPCLRKCYFPYLENGYNQNYGRKFVQGKSIDVACHPGYALPKAQTTVTCMENGWSPTPRCIRVSFTL
notes: Positive control in the BLI assay; also called factor H-like protein 1
On to B1, for which the Kd in the series with C3b [1] is 1170 nM.

B2: Complement Factor I (protein)
chain 1: KVTYTSQEDLVEKKCLAKKYTHLSCDKVFCQPWQRCIEGTCVCKLPYQCPKNGTAVCATNRRSFPTYCQQKSLECLHPGTKFLNNGTCTAEGKFSVSLKHGNTDSEGIVEVKLVDQDKTMFICKSSWSMREANVACLDLGFQQGADTQRRFKLSDLSINSTECLHVHCRGLETSLAECTFTKRRTMGYQDFADVVCYTQKADSPMDDFFQCVNGKYISQMKACDGINDCGDQSDELCCKACQGKGFHCKSGVCIPSQYQCNGEVDCITGEDEVGCAGFASVTQEETEILTADMDAERRRIKSLLPKLSCGVKNRMHI
chain 2: IVGGKRAQLGDLPWQVAIKDASGITCGGIYIGGCWILTAAHCLRASKTHRYQIWTTVVDWIHPDLKRIVIEYVDRIIFHENYNAGTYQNDIALIEMKKDGNKKDCELPRSIPACVPWSPYLFQPNDTCIVSGWGREKDNERVFSLQWGEVKLISNCSKFYGNRFYEKEMECAGTYDGSIDACKGDSGGPLVCMDANNVTYVWGVVSWGENCGKPEFPGVYTKVANYFDWISYHVGRPFISQYNV
Turning to B2, in the series with C3b [2], the “C3b alpha-chain breakdown (Instant Blue stained gel), with FHL-1 as co-factor” value is “It was possible to observe the breakdown of the α-chain of C3b in the presence of FHL-1 and FI”.

B3: glycosylated chimeric FH-FI polypeptide (other)
chain: GSSGEDCNELPPRRNTEILTGSWSDQTYPEGTQAIYKCRPGYRSLGNIIMVCRKGEWVALNPLRKCQKRPCGHPGDTPFGTFTLTGGNVFEYGVKAVYTCNEGYQLLGEINYRECDTDGWTNDIPICEVVKCLPVTAPENGKIVSSAMEPDREYHFGQAVRFVCNSGYKIEGDEEMHCSDDGFWSKEKPKCVEISCKSPDVINGSPISQKIIYKENERFQYKCNMGYEYSERGDAVCTESGWRPLPSCEEGGGGSRGGGGSGGGGSIVGGKRAQLGDLPWQVAIKDASGITCGGIYIGGCWILTAAHCLRASKTHRYQIWTTVVDWIHPDLKRIVIEYVDRIIFHENYNAGTYQNDIALIEMKKDGNKKDCELPRSIPAAVPWSPYLFQPNDTCIVSGWGREKDNERVFSLQWGEVKLISNCSKFYGNRFYEKEMECAGTYDGSIDACKGDSGGPLVCMDANNVTYVWGVVSWGENCGKPEFPGVYTKVANYFDWISYHVGRPFISQYNV
modifications: N-glycans on the Complement Factor I proteolytic domain (glycosylated form)
notes: It consists of the Factor H co-factor region (CCPs 1-4), a G4S-R-(G4S)2 linker and the Factor I proteolytic domain; also called Chimera
As for B3, binding in the series with C3b [1] was characterised by a dissociation constant (Kd) of 5.21 nM.

B4: deglycosylated chimeric FH-FI polypeptide (other)
chain: GSSGEDCNELPPRRNTEILTGSWSDQTYPEGTQAIYKCRPGYRSLGNIIMVCRKGEWVALNPLRKCQKRPCGHPGDTPFGTFTLTGGNVFEYGVKAVYTCNEGYQLLGEINYRECDTDGWTNDIPICEVVKCLPVTAPENGKIVSSAMEPDREYHFGQAVRFVCNSGYKIEGDEEMHCSDDGFWSKEKPKCVEISCKSPDVINGSPISQKIIYKENERFQYKCNMGYEYSERGDAVCTESGWRPLPSCEEGGGGSRGGGGSGGGGSIVGGKRAQLGDLPWQVAIKDASGITCGGIYIGGCWILTAAHCLRASKTHRYQIWTTVVDWIHPDLKRIVIEYVDRIIFHENYNAGTYQNDIALIEMKKDGNKKDCELPRSIPAAVPWSPYLFQPNDTCIVSGWGREKDNERVFSLQWGEVKLISNCSKFYGNRFYEKEMECAGTYDGSIDACKGDSGGPLVCMDANNVTYVWGVVSWGENCGKPEFPGVYTKVANYFDWISYHVGRPFISQYNV
modifications: N-glycans removed with PNGase F under non-denaturing conditions
notes: It is not the N464Q/N494Q/N536Q mutant; also called dFH-FI; dChimera
In the series with C3b [1], B4 showed a dissociation constant (Kd) of 47.6 nM.

B5: Complement Factor H (other)
chain: EDCNELPPRRNTEILTGSWSDQTYPEGTQAIYKCRPGYRSLGNVIMVCRKGEWVALNPLRKCQKRPCGHPGDTPFGTFTLTGGNVFEYGVKAVYTCNEGYQLLGEINYRECDTDGWTNDIPICEVVKCLPVTAPENGKIVSSAMEPDREYHFGQAVRFVCNSGYKIEGDEEMHCSDDGFWSKEKPKCVEISCKSPDVINGSPISQKIIYKENERFQYKCNMGYEYSERGDAVCTESGWRPLPSCEEKSCDNPYIPNGDYSPLRIKHRTGDEITYQCRNGFYPATRGNTAKCTSTGWIPAPRCTLKPCDYPDIKHGGLYHENMRRPYFPVAVGKYYSYYCDEHFETPSGSYWDHIHCTQDGWSPAVPCLRKCYFPYLENGYNQNYGRKFVQGKSIDVACHPGYALPKAQTTVTCMENGWSPTPRCIRVKTCSKSSIDIENGFISESQYTYALKEKAKYQCKLGYVTADGETSGSITCGKDGWSAQPTCIKSCDIPVFMNARTKNDFTWFKLNDTLDYECHDGYESNTGSTTGSIVCGYNGWSDLPICYERECELPKIDVHLVPDRKKDQYKVGEVLKFSCKPGFTIVGPNSVQCYHFGLSPDLPICKEQVQSCGPPPELLNGNVKEKTKEEYGHSEVVEYYCNPRFLMKGPNKIQCVDGEWTTLPVCIVEESTCGDIPELEHGWAQLSSPPYYYGDSVEFNCSESFTMIGHRSITCIHGVWTQLPQCVAIDKLKKCKSSNLIILEEHLKNKKEFDHNSNIRYRCRGKEGWIHTVCINGRWDPEVNCSMAQIQLCPPPPQIPNSHNMTTTLNYRDGEKVSVLCQENYLIQEGEEITCKDGRWQSIPLCVEKIPCSQPPQIEHGTINSSRSSQESYAHGTKLSYTCEGGFRISEENETTCYMGKWSSPPQCEGLPCKSPPEISHGVVAHMSDSYQYGEEVTYKCFEGFGIDGPAIAKCLGEKWSHPPSCIKTDCLSLPSFENAIPMGEKKDVYKAGEQVTYTCATYYKMDGASNVTCINSRWTGRPTCRDTSCVNPPTVQNAYIVSRQMSKYPSGERVRYQCRSPYEMFGDEEVMCLNGNWTEPPQCKDSTGKCGPPPPIDNGDITSFPLSVYAPASSVEYQCQNLYQLEGNKRITCRNGQWSEPPKCLHPCVISREIMENYNIALRWTAKQKLYSRTGESVEFVCKRGYRLSSRSHTLRTTCWDGKLEYPTCAKR
notes: Positive control in the BLI assay; also called FH
In the series with C3b [1], B5 had a Kd of 583 nM.
